Like-named read-outs stand apart in the source and are kept apart here.
Experiments:
PD-L1-ECD = PD-L1-ECD (UniProt Q9NZQ7); test: BLI
CD16a-ECD (human) [1] = molecular target: CD16a-ECD (human) (UniProt P08637); test: BLI
CD16a-ECD (human) [2] = molecular target: CD16a-ECD (human) (UniProt P08637)

Sequence of CD16a-ECD (human) (P08637 17-208): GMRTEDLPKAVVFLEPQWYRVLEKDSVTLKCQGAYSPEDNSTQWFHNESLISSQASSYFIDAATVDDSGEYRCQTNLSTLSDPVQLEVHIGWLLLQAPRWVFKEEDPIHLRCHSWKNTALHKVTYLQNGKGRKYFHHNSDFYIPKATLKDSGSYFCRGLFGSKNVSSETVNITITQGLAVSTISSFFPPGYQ
Sequence of PD-L1-ECD (Q9NZQ7 19-238): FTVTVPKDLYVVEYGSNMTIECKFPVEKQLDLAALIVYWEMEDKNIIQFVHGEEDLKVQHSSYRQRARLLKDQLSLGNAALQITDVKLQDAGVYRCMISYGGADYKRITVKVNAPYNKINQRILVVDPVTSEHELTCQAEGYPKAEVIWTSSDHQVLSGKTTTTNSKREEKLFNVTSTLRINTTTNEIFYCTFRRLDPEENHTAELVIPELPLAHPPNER

How did the Kd (PD-L1-ECD) turn out when ICI12 (from UniProt P01857) was run?
Its Kd is 5.8 nM.

With ICI13 (from UniProt P01857) as the substance, how does the Kd (PD-L1-ECD) read?
The Kd was 3.2 nM.

Which Kd (CD16a-ECD (human) [1]; bispecific antibody) does the source give for “bispecific hdFEB4-1-4×hNKE14-8 (from UniProt P01857)” here?
Its Kd is 16.5 nM.

Which EC50 of the ADCC reporter bioassay (Promega G7010, luciferase; A431 target cells; 0.2 nM – 13.3 nM antibody) (CD16a-ECD (human) [2]) does the source give for “bispecific hdFEB4-1-4×hNKE14-8 (bispecific antibody)” here?
Its EC50 of the ADCC reporter bioassay (Promega G7010, luciferase; A431 target cells; 0.2 nM – 13.3 nM antibody) is 0.362 nM.

How did the Kd (CD16a-ECD (human) [1]) turn out when hNKE14-8 (from UniProt P01857) was run?
The Kd was 15.5 nM.
